According to article PMC8460140 (2021):

T1: His6-tagged CB1R-CTD (amino acids 400-472), labeled with 5-IAF (UniProt P21554 400-472, labeled with 5-(iodoacetamido)fluorescein (5-IAF); labeled residue not stated)
T1 chain: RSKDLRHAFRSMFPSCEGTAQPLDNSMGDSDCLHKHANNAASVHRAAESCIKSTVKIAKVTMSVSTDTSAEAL

B1: His6-tagged BiP-IR (amino acids 497-654), recombinant (domain or fragment)
chain: IEVTFEIDVNGILRVTAEDKGTGNKNKITITNDQNRLTPEEIERMVNDAEKFAEEDKKLKERIDTRNELESYAYSLKNQIGDKEKLGGKLSSEDKETMEKAVEEKIEWLESHQDADIEDFKAKKKELEEIVQPIISKLYGSAGPPPTGEEDTAEKDEL
B2: His6-tagged BiP, recombinant (natural protein)
chain: not shown

Target: T1, His6-tagged CB1R-CTD (amino acids …)
Experiment: FP

Row | Binder | Kd
1 | B1 | 17.3 µM
2 | B2 | 17.7 µM
